Results published in the supplement of paper PMC9112550, “Optimization of the antimicrobial peptide Bac7 by deep mutational scanning” (BMC Biology, 2022).

Test system: Escherichia coli TOP10
Assay: shrunken log2 fold change of peptide-encoding DNA abundance (4.5 h post-induction vs induction); higher = less antimicrobial activity (less host growth inhibition)
Settings: time post-induction: 4.5 h; library: site-saturation at positions 5, 18, 19, 20
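Note: peptides expressed intracellularly from a pBAD plasmid library in pooled LB shake-flask culture, induced with 0.3% L-arabinose, DNA abundance read by NGS, three biological replicates, DESeq2 with apeglm shrinkage.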

Row | Sequence | shrunken log2 fold change
1 | RRIRKRPPRLPRPRPRPYYYPRP | -0.704
2 | RRIRMRPPRLPRPRPRPSEPPRP | 0.33
3 | RRIRFRPPRLPRPRPRPRVVPRP | 0.298
4 | RRIRYRPPRLPRPRPRPKLKPRP | -0.0928
5 | RRIRERPPRLPRPRPRPEYPPRP | -0.162
6 | RRIRKRPPRLPRPRPRPCLFPRP | 0.0241
7 | RRIRRRPPRLPRPRPRPLDRPRP | -0.00997
8 | RRIRHRPPRLPRPRPRPDAQPRP | 0.0391
9 | RRIRTRPPRLPRPRPRPICMPRP | -0.348
10 | RRIRTRPPRLPRPRPRPGYKPRP | -0.275
11 | RRIRMRPPRLPRPRPRPALPPRP | 0.363
12 | RRIRARPPRLPRPRPRPKHMPRP | -0.158
13 | RRIRTRPPRLPRPRPRPPFYPRP | -0.0308
14 | RRIRVRPPRLPRPRPRPPQEPRP | 0.177
15 | RRIRQRPPRLPRPRPRPDPIPRP | -0.0263
16 | RRIRMRPPRLPRPRPRPESIPRP | 0.522
17 | RRIRSRPPRLPRPRPRPLHGPRP | 0.0705
18 | RRIRQRPPRLPRPRPRPDEAPRP | -0.0116
19 | RRIRDRPPRLPRPRPRPVFMPRP | 0.11
20 | RRIRLRPPRLPRPRPRPYQDPRP | -0.106
21 | RRIRKRPPRLPRPRPRPVVGPRP | 0.686
22 | RRIRARPPRLPRPRPRPKHIPRP | -0.219
23 | RRIRPRPPRLPRPRPRPGSEPRP | 0.0814
24 | RRIRSRPPRLPRPRPRPKWWPRP | 0.0275
25 | RRIRERPPRLPRPRPRPQDRPRP | -0.167

Row | Sequence | shrunken log2 fold change
26 | RRIRTRPPRLPRPRPRPLQDPRP | 0.00698
27 | RRIRARPPRLPRPRPRPAEEPRP | 0.697
28 | RRIRLRPPRLPRPRPRPIQFPRP | -0.0198
29 | RRIRERPPRLPRPRPRPQYVPRP | -0.215
30 | RRIRGRPPRLPRPRPRPSDTPRP | 0.116
31 | RRIRIRPPRLPRPRPRPETKPRP | 0.0233
32 | RRIRKRPPRLPRPRPRPAHHPRP | -0.00814
33 | RRIRCRPPRLPRPRPRPCQQPRP | -0.0438
34 | RRIRMRPPRLPRPRPRPQQWPRP | 0.153
35 | RRIRARPPRLPRPRPRPQVNPRP | -0.196
36 | RRIRTRPPRLPRPRPRPKENPRP | 0.15
37 | RRIRARPPRLPRPRPRPNNHPRP | -0.381
38 | RRIRSRPPRLPRPRPRPKHEPRP | 0.076
39 | RRIRCRPPRLPRPRPRPWWYPRP | -0.136
40 | RRIRDRPPRLPRPRPRPSGEPRP | 0.0799
41 | RRIRMRPPRLPRPRPRPRTPPRP | 1.26
42 | RRIRFRPPRLPRPRPRPESPPRP | 0.00789
43 | RRIRVRPPRLPRPRPRPIKPPRP | -0.15
44 | RRIRVRPPRLPRPRPRPQQLPRP | -0.0555
45 | RRIRNRPPRLPRPRPRPFIMPRP | -0.889
46 | RRIRFRPPRLPRPRPRPHCHPRP | -0.59
47 | RRIRPRPPRLPRPRPRPIKVPRP | -0.468
48 | RRIRWRPPRLPRPRPRPCEWPRP | 0.0102
49 | RRIRQRPPRLPRPRPRPFKVPRP | -0.00664
50 | RRIRVRPPRLPRPRPRPITHPRP | -0.171

Row | Sequence | shrunken log2 fold change
51 | RRIRDRPPRLPRPRPRPINLPRP | -0.129
52 | RRIRYRPPRLPRPRPRPGHEPRP | -0.18
53 | RRIRARPPRLPRPRPRPKSVPRP | 0.0188
54 | RRIRRRPPRLPRPRPRPDFRPRP | 0.118
55 | RRIRWRPPRLPRPRPRPLGRPRP | 0.424
56 | RRIRERPPRLPRPRPRPCYGPRP | -0.274
57 | RRIRYRPPRLPRPRPRPTYIPRP | -0.58
58 | RRIRKRPPRLPRPRPRPYVCPRP | -0.0742
59 | RRIRCRPPRLPRPRPRPWFAPRP | -0.183
60 | RRIRARPPRLPRPRPRPVFVPRP | 0.179
61 | RRIRRRPPRLPRPRPRPVPIPRP | 0.137
62 | RRIRDRPPRLPRPRPRPRAAPRP | 0.609
63 | RRIRRRPPRLPRPRPRPYCAPRP | -0.0524
64 | RRIRHRPPRLPRPRPRPLQQPRP | 0.0446
65 | RRIRQRPPRLPRPRPRPKPSPRP | 0.159
66 | RRIRQRPPRLPRPRPRPQATPRP | -0.00963
67 | RRIRERPPRLPRPRPRPCLNPRP | -0.267
68 | RRIRYRPPRLPRPRPRPFMMPRP | -0.108
69 | RRIRGRPPRLPRPRPRPQYMPRP | -0.195
70 | RRIRERPPRLPRPRPRPGGTPRP | -0.215
71 | RRIRGRPPRLPRPRPRPSNFPRP | 0.0228
72 | RRIRHRPPRLPRPRPRPGKAPRP | -0.0115
73 | RRIRLRPPRLPRPRPRPAVMPRP | 0.113
74 | RRIRMRPPRLPRPRPRPQKRPRP | 0.489
75 | RRIRGRPPRLPRPRPRPGKYPRP | -0.265

Row | Sequence | shrunken log2 fold change
76 | RRIRNRPPRLPRPRPRPLEFPRP | -0.109
77 | RRIRDRPPRLPRPRPRPPKQPRP | -0.0537
78 | RRIRPRPPRLPRPRPRPYIKPRP | -0.939
79 | RRIRVRPPRLPRPRPRPVHLPRP | 0.0586
80 | RRIRIRPPRLPRPRPRPLEFPRP | -0.196
81 | RRIRYRPPRLPRPRPRPVRHPRP | -0.245
82 | RRIRPRPPRLPRPRPRPYIFPRP | -0.984
83 | RRIRNRPPRLPRPRPRPGHDPRP | 0.0277
84 | RRIRDRPPRLPRPRPRPNIAPRP | 0.169
85 | RRIRCRPPRLPRPRPRPTHDPRP | 0.302
86 | RRIRSRPPRLPRPRPRPWFEPRP | -0.0139
87 | RRIRHRPPRLPRPRPRPQYFPRP | -0.439
88 | RRIRTRPPRLPRPRPRPWLEPRP | 0.218
89 | RRIRCRPPRLPRPRPRPLMWPRP | -0.185
90 | RRIRGRPPRLPRPRPRPSQCPRP | -0.165
91 | RRIRKRPPRLPRPRPRPTKHPRP | 0.195
92 | RRIRPRPPRLPRPRPRPPTYPRP | -0.204
93 | RRIRKRPPRLPRPRPRPHADPRP | 0.0566
94 | RRIRDRPPRLPRPRPRPKQKPRP | 0.03
95 | RRIRLRPPRLPRPRPRPYFNPRP | -1.13
96 | RRIRNRPPRLPRPRPRPRPAPRP | 0.313
97 | RRIRARPPRLPRPRPRPKRYPRP | 0.159
98 | RRIRTRPPRLPRPRPRPILSPRP | -0.0676
99 | RRIRIRPPRLPRPRPRPHTEPRP | 0.0578
100 | RRIRGRPPRLPRPRPRPERNPRP | 0.855

Row | Sequence | shrunken log2 fold change
101 | RRIRNRPPRLPRPRPRPLVEPRP | -0.187
102 | RRIRGRPPRLPRPRPRPRSCPRP | 0.759
103 | RRIRIRPPRLPRPRPRPRLPPRP | 0.161
104 | RRIRIRPPRLPRPRPRPYYYPRP | -1.08
105 | RRIRYRPPRLPRPRPRPLFRPRP | -0.66
106 | RRIRSRPPRLPRPRPRPCTWPRP | -0.125
107 | RRIRDRPPRLPRPRPRPMNPPRP | -0.0564
108 | RRIRGRPPRLPRPRPRPWSYPRP | -0.157
109 | RRIRDRPPRLPRPRPRPTNRPRP | -0.149
110 | RRIRGRPPRLPRPRPRPAKIPRP | 0.226
111 | RRIRWRPPRLPRPRPRPVGNPRP | 0.0858
112 | RRIRNRPPRLPRPRPRPHITPRP | -0.399
113 | RRIRKRPPRLPRPRPRPKELPRP | 0.566
114 | RRIRVRPPRLPRPRPRPACAPRP | 0.322
115 | RRIRDRPPRLPRPRPRPFYEPRP | -0.262
116 | RRIRVRPPRLPRPRPRPFVMPRP | 0.0296
117 | RRIRTRPPRLPRPRPRPFVQPRP | -0.177
118 | RRIRSRPPRLPRPRPRPEPCPRP | 0.108
119 | RRIRKRPPRLPRPRPRPIVGPRP | 0.117
120 | RRIRLRPPRLPRPRPRPCAWPRP | -0.005
121 | RRIRWRPPRLPRPRPRPFIDPRP | -0.046
122 | RRIRFRPPRLPRPRPRPQMHPRP | -0.332
123 | RRIRDRPPRLPRPRPRPPHWPRP | 0.322
124 | RRIRQRPPRLPRPRPRPARDPRP | 0.0373
125 | RRIRMRPPRLPRPRPRPNYHPRP | -0.525

Row | Sequence | shrunken log2 fold change
126 | RRIRGRPPRLPRPRPRPKSVPRP | 0.591
127 | RRIRPRPPRLPRPRPRPLRTPRP | 0.831
128 | RRIRQRPPRLPRPRPRPQFMPRP | -0.302
129 | RRIRARPPRLPRPRPRPKENPRP | 0.379
130 | RRIRKRPPRLPRPRPRPICWPRP | 0.239
131 | RRIRLRPPRLPRPRPRPCDDPRP | -0.189
132 | RRIRDRPPRLPRPRPRPQLCPRP | 0.365
133 | RRIRWRPPRLPRPRPRPSNIPRP | -0.699
134 | RRIRDRPPRLPRPRPRPDGPPRP | 0.0462
135 | RRIRSRPPRLPRPRPRPVPFPRP | -0.237
136 | RRIRERPPRLPRPRPRPWDFPRP | 0.0275
137 | RRIRKRPPRLPRPRPRPDAWPRP | -0.0106
138 | RRIRNRPPRLPRPRPRPESIPRP | -0.24
139 | RRIRNRPPRLPRPRPRPHCYPRP | 0.0691
140 | RRIRFRPPRLPRPRPRPVSAPRP | 0.25
141 | RRIRGRPPRLPRPRPRPPKGPRP | 0.673
142 | RRIRCRPPRLPRPRPRPESQPRP | -0.0239
143 | RRIRKRPPRLPRPRPRPGLHPRP | 0.0334
144 | RRIRARPPRLPRPRPRPDPYPRP | -0.169
145 | RRIRCRPPRLPRPRPRPWLMPRP | -0.159
146 | RRIRMRPPRLPRPRPRPPLQPRP | 0.661
147 | RRIRIRPPRLPRPRPRPHTLPRP | -0.436
148 | RRIRARPPRLPRPRPRPHKGPRP | 0.187
149 | RRIRERPPRLPRPRPRPFKMPRP | -0.559
150 | RRIRVRPPRLPRPRPRPAGKPRP | -0.308
